These binders were tested against human protein arginine deiminase 4 (PAD4) (human) (UniProt Q9UM07).
UniProt Q9UM07, sequence (Q9UM07 whole entry): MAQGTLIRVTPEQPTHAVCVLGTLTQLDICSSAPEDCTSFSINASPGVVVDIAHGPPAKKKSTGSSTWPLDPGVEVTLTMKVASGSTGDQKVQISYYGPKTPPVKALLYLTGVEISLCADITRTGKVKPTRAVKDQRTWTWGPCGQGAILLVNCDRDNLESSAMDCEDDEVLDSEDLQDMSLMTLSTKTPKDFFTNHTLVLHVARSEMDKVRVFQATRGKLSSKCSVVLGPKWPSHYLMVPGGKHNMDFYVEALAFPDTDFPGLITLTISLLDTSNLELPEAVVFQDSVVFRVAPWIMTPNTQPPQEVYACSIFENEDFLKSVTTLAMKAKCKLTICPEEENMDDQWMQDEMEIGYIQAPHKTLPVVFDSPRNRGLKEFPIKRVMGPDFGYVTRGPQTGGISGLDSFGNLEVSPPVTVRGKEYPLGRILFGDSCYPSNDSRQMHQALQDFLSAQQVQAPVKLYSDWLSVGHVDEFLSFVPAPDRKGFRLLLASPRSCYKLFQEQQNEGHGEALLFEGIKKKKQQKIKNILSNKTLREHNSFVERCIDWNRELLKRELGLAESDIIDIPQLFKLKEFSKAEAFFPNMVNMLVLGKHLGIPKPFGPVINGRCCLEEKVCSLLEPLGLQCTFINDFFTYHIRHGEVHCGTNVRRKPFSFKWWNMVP

Binder | K d(app): hTRX concentration (0-10 uM) giving half-maximal activation of PAD4 (citrullination of BAEE) [µM]
C35S-hTRX (enzyme) MVKQIESKTAFQEALDAAGDKLVVVDFSATWCGPSKMIKPFFHSLSEKYSNVIFLEVDVDDCQDVASECEVKCMPTFQFFKKGQKVGEFSGANKEKLEATINELV | 1.17
C62/69S-hTRX (enzyme) MVKQIESKTAFQEALDAAGDKLVVVDFSATWCGPCKMIKPFFHSLSEKYSNVIFLEVDVDDSQDVASESEVKCMPTFQFFKKGQKVGEFSGANKEKLEATINELV | 0.61
IAA-treated hTRX (thiol-free variant) (enzyme, all cysteine residues chemically modified with iodoacetamide) MVKQIESKTAFQEALDAAGDKLVVVDFSATWCGPCKMIKPFFHSLSEKYSNVIFLEVDVDDCQDVASECEVKCMPTFQFFKKGQKVGEFSGANKEKLEATINELV | 0.62
C32/35S-hTRX (enzyme) MVKQIESKTAFQEALDAAGDKLVVVDFSATWSGPSKMIKPFFHSLSEKYSNVIFLEVDVDDCQDVASECEVKCMPTFQFFKKGQKVGEFSGANKEKLEATINELV | 0.44
C62S-hTRX (enzyme) MVKQIESKTAFQEALDAAGDKLVVVDFSATWCGPCKMIKPFFHSLSEKYSNVIFLEVDVDDSQDVASECEVKCMPTFQFFKKGQKVGEFSGANKEKLEATINELV | 1.14

Next, values leading:

K d(app): hTRX concentration (0-10 uM) giving half-maximal activation of PAD4 (citrullination of BAEE) [µM] | Binder
1.38 | C69S-hTRX (enzyme) MVKQIESKTAFQEALDAAGDKLVVVDFSATWCGPCKMIKPFFHSLSEKYSNVIFLEVDVDDCQDVASESEVKCMPTFQFFKKGQKVGEFSGANKEKLEATINELV
0.78 | C73S-hTRX (enzyme) MVKQIESKTAFQEALDAAGDKLVVVDFSATWCGPCKMIKPFFHSLSEKYSNVIFLEVDVDDCQDVASECEVKSMPTFQFFKKGQKVGEFSGANKEKLEATINELV

Reference: PMC6396667
